Patent US20080145903A1, “PROCESSES OF PRODUCING FERMENTATION PRODUCTS” (priority 2006, published 2008)

Test system: RED STAR yeast
Assay: Conventional simultaneous saccharification fermentation (SSF) of liquefied corn mash, ethanol yield by weight loss and HPLC
Format: cell-based
Conditions: conventional SSF, 70 hours
Experimental: Liquefied corn mash was used to evaluate the effect of adding salicylic acid (SA) to a known enzyme dosage of
The performance of these enzymes was compared to controls without salicylic acid addition. The experimental set-up used is described in table below.
5.5 g of RED STAR™ yeast was rehydrated in 100 mL distilled water and incubated at 32° C. for 30 minutes prior to the beginning of fermentation. Approximately 50 million cells/g DS of yeast were added to each of the fermentations.
The corn mash was thawed to room temperature. Urea and Penicillin were added to a final concentration of […] and 3 mg/L respectively. Small-scale (˜4 g) fermentations were carried out in 15 mL polypropylene tubes with five replicates for each experimental condition. The tubes were prepared by drilling a 1/32 inch (1.5 mm) hole and the empty tubes were then weighed before liquefied corn mash was added. The tubes were weighed again after mash was added to determine the exact weight of mash in each tube. This weight was used to calculate the enzyme dosage necessary as follows:
Enzyme was added according to dosage described in table above and 100 μl of rehydrated yeast were added to each tube to begin fermentation. Fermentation progress was followed by weighing the tubes over time for approximately 70 hours. Tubes were vortexed briefly before each weighing. […]

B1: Aspergillus niger GA: Aspergillus niger G1 glucoamylase disclosed in Boel et al., 1984, EMBO J. 3 (5): 1097-1102 (protein, UniProt P69328 25-640, looked up)
Glucoamylase: ATLDSWLSNEATVARTAILNNIGADGAWVSGADSGIVVASPSTDNPDYFYTWTRDSGLVLKTLVDLFRNGDTSLLSTIENYISAQAIVQGISNPSGDLSSGAGLGEPKFNVDETAYTGSWGRPQRDGPALRATAMIGFGQWLLDNGYTSTATDIVWPLVRNDLSYVAQYWNQTGYDLWEEVNGSSFFTIAVQHRALVEGSAFATAVGSSCSWCDSQAPEILCYLQSFWTGSFILANFDSSRSGKDANTLLGSIHTFDPEAACDDSTFQPCSPRALANHKEVVDSFRSIYTLNDGLSDSEAVAVGRYPEDTYYNGNPWFLCTLAAAEQLYDALYQWDKQGSLEVTDVSLDFFKALYSDAATGTYSSSSSTYSSIVDAVKTFADGFVSIVETHAASNGSMSEQYDKSDGEQLSARDLTWSYAALLTANNRRNSVVPASWGETSASSVPGTCAATSAIGTYSSVTVTSWPSIVATGGTTTTATPTGSGSVTSTSKTTATASKTSTSTSSTSCTTPTAVAVTFDLTATTTYGENIYLVGSISQLGDWETSDGIALSADKYTSSDPLWYVTVTLPAGESFEYKFIRIESDDSVEWESDPNREYTVPQACGTSTATVTDTWR
How did the “Ethanol yield after 70 hours fermentation determined by HPLC, With SA” value (SA dose 5.0 mM/gDS) turn out when B1 was run?
The value was 117.67.

And the “Ethanol yield after 70 hours fermentation determined by HPLC, without SA” value (no SA)?
The value was 113.74.
